Test results as given in patent US20240101717A1 (BIONECURE THERAPEUTICS, published 2024).

Biological target: T1, human Trop-2 (human, UniProt P09758 27-323)
T1 sequence (looked up): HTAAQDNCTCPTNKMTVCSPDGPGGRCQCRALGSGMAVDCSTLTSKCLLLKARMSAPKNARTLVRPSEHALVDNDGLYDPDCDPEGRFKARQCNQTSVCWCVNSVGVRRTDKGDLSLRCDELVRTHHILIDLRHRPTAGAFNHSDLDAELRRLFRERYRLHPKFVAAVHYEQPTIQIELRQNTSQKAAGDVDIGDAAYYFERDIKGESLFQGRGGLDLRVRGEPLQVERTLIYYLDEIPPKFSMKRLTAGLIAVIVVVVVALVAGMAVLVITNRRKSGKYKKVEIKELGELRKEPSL
Assay: cell-based or functional assay

B1: A1,2X4-MMAE ADC (antibody, V domains shown)
VH: QVQLQESGPGLVKPSETLSLTCTVSGFSLTSYGVNWIRQPPGKGLEWIGVMWAGGSTNYNSALMSRLTISKDTSKNQFSLKLSSVTAADTAVYYCARDENWDGAWFAYWGQGTLVTVSS
VL: DIVMTQSPDSLAVSLGERATINCKSSQSLLNSGTRKNYLAWYQQKPGQPPKLLISWASSRESGVPDRFSGSGSGTDFTLTISSLQAEDVAVYYCKQSYNLFTFGGGTKVEIK
modifications: MMAE-linker conjugated to the antibody; positions not given
- IC50 (nM), in vitro cytotoxicity assay on MDA-MB-468 cells: 0.389 nM
